Patent US20260374880 (published 2026)
Values joined by “and” are separate entries in the source; they are usually repeats but may differ in a detail not shown here. Identical values can stand only once.

Legend:
[1] = target: T1, human TGFbR1 ECD-133-myc(His)6 (human); experiment: BLI
T1 chain: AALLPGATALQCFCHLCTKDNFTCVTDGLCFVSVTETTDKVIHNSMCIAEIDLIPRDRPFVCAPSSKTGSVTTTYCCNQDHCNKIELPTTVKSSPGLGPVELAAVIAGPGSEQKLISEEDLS

[2] = target: T2, murine TGFbR1 ECD-133-myc(His)6 (mouse, UniProt Q64729); experiment: BLI
T2 chain: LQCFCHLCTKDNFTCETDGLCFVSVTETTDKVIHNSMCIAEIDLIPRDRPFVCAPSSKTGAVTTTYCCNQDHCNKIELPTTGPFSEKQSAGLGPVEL

[3] = target: T1, human TGFbR1 ECD-133-myc(His)6; experiment: SPR
[4] = target: T3, human TGFbR1 ECD-133-huFc (human); experiment: BLI
T3 chain: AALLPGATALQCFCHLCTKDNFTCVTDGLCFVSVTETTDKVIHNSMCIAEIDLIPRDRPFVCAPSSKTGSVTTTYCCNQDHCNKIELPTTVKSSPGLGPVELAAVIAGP

[5] = target: T1, human TGFbR1 ECD-133-myc(His)6; experiment: BLI
TGFbR1 ECD G132A = target: T4, TGFbR1 ECD G132A (human); experiment: ELISA
T4 chain: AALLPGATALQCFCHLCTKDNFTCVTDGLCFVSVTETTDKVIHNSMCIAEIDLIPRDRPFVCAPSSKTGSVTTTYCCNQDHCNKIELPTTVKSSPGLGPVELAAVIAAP

[6] = target: T1, human TGFbR1 ECD-133-myc(His)6; experiment: ELISA
TGFbR1 ECD V129G = target: T5, TGFbR1 ECD V129G (human); experiment: ELISA
T5 chain: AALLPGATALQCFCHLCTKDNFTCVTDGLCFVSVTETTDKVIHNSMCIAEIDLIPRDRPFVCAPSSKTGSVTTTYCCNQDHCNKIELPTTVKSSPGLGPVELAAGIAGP

TGFbR1 ECD P133A = target: T6, TGFbR1 ECD P133A (human); experiment: ELISA
T6 chain: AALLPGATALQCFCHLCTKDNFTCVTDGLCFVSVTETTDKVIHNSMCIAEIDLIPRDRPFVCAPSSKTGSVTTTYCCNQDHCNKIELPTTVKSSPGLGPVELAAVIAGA

[7] = target: T7, human TGFbR1 ECD 33-125-myc(His)6 (human); experiment: ELISA
T7 chain: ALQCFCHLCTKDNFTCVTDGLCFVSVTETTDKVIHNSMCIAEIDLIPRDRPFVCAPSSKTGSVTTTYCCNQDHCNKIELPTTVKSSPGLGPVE

TGFbR1 ECD I130G = target: T8, TGFbR1 ECD I130G (human); experiment: ELISA
T8 chain: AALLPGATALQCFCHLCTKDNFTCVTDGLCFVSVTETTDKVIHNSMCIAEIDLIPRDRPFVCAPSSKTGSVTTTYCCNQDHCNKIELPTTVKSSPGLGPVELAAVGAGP

TGFbR1 ECD L126A = target: T9, TGFbR1 ECD L126A (human); experiment: ELISA
T9 chain: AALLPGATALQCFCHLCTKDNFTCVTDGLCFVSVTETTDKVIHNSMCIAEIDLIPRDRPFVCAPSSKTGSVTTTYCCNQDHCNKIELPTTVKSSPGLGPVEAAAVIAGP

[8] = target: T10, endogenous TGFbR1 on cells (human); experiment: FACS, RWPE cells
T10 chain: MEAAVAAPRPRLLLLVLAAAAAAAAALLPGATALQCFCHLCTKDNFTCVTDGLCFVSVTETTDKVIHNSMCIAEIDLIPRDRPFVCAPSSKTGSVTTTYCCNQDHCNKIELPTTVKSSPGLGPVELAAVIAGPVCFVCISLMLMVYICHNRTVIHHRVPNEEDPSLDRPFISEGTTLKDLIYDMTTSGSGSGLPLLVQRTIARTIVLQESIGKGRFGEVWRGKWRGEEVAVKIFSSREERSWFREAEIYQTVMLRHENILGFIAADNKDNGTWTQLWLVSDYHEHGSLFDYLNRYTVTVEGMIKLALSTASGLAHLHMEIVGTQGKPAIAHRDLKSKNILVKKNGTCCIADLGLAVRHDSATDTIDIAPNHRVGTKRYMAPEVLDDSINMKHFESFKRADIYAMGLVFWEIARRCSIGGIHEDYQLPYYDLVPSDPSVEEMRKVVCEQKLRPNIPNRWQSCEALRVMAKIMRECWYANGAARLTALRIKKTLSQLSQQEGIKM

[9] = target: T10, endogenous TGFbR1 on cells; experiment: FACS, PC-3U cells
[10] = target: T1, human TGFbR1 ECD-133-myc(His)6; experiment: SPR, biotinylated mAb
[11] = target: T1, human TGFbR1 ECD-133-myc(His)6; experiment: BLI
[12] = target: T3, human TGFbR1 ECD-133-huFc; experiment: ELISA

B1: mAb #19 murine chimeric IgG1 (antibody, V domains shown)
VH: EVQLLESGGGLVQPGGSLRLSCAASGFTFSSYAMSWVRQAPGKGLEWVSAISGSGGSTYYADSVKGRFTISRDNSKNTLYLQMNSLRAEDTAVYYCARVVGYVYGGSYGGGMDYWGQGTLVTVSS
VL: DIQMTQSPSSLSASVGDRVTITCRASQSISSYLNWYQQKPGKAPKLLIYAASSLQSGVPSRFSGSGSGTDFTLTISSLQPEDFATYYCQQGYGPLTFGQGTKLEIK
For B1, the Kd [1] was 3.74 nM, the Kd [2] was 18 nM and the Kd [3] was 5.6 nM and 6.5 nM. The Kd [4] was 13 nM, the Kd [5] was 3.7 nM and the binding result (TGFbR1 ECD G132A) was “no binding”. The IC50 [6] was 0.104 nM, the binding result (TGFbR1 ECD V129G) was “no binding” and the binding result (TGFbR1 ECD P133A) was “no binding”. B1: no binding [7]; no binding (TGFbR1 ECD I130G); no binding (TGFbR1 ECD L126A). The Kd [8] was 7.81 nM, the Kd [9] was 10.7 nM and the Kd [10] was 2.5 nM and 2.3 nM and 1.8 nM.

B2: mAb #19 human IgG1-LALA (antibody, V domains shown)
VH: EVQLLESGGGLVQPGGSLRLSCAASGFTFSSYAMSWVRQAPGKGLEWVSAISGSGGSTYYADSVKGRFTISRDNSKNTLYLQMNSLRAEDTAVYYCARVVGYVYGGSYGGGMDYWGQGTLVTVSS
VL: DIQMTQSPSSLSASVGDRVTITCRASQSISSYLNWYQQKPGKAPKLLIYAASSLQSGVPSRFSGSGSGTDFTLTISSLQPEDFATYYCQQGYGPLTFGQGTKLEIK
With B2 the Kd [5] was 5.9 nM and the IC50 [6] was 0.139 nM.

B3: YU771-A01 (antibody, V domains shown)
VH: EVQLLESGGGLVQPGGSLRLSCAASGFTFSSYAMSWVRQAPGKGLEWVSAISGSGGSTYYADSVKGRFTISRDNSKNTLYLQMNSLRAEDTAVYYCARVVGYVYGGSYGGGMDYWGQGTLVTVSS
VL: DIQMTQSPSSLSASVGDRVTITCRASQSISSYLNWYQQKPGKAPKLLIYGASFLQYGVPSRFSGSGSGTDFTLTISSLQPEDFATYYCQQGYGPLTFGQGTKLEIK
B3 was tested, and the Kd [11] was 11 nM and the EC50 [12] was 0.022 µg/mL.

B4: YU772-D10_VH-YU772-C01_VL (antibody, V domains shown)
VH: EVQLLESGGGLVQPGGSLRLSCAASGFTFSSYPMSWVRQAPGKGLEWVSAISGYGGSTYYADSVKGRFTISRDNSKNTLYLQMNSLRAEDTAVYYCARVVGYVYDGSYGGGMDYWGQGTLVTVSS
VL: DIQMTQSPSSLSASVGDRVTITCRASQSIWSYLNWYQQKPGKAPKLLIYAASSLQSGVPSRFSGSGSGTDFTLTISSLQPEDFATYYCQQGYGPLTFGQGTKLEIK
B4 showed a Kd [11] of 7.3 nM and an EC50 [12] of 0.0303 µg/mL.

B5: YU772-A11 (antibody, V domains shown)
VH: EVQLLESGGGLVQPGGSLRLSCAASGFTFSSYAMSWVRQAPGKGLEWVSAISGSGGYTYYADSVKGRFTISRDNSKNTLYLQMNSLRAEDTAVYYCARVVGYVYDGAYGGGMDYWGQGTLVTVSS
VL: DIQMTQSPSSLSASVGDRVTITCRASQSISSYLNWYQQKPGKAPKLLIYAASSLQSGVPSRFSGSGSGTDFTLTISSLQPEDFATYYCQQGYGPLTFGQGTKLEIK
B5 gave a Kd [11] of 7.9 nM and an EC50 [12] of 0.0314 µg/mL.

B6: YU772-G04_VH-YU771-A09-VL (antibody, V domains shown)
VH: EVQLLESGGGLVQPGGSLRLSCAASGFPFSSYAMSWVRQAPGKGLEWVSAISGSGGTTYYADSVKGRFTISRDNSKNTLYLQMNSLRAEDTAVYYCARVAGYVHRGFYGGGMDYWGQGTLVTVSS
VL: DIQMTQSPSSLSASVGDRVTITCRASQSIYSHLNWYQQKPGKAPKLLIYAASTLQSGVPSRFSGSGSGTDFTLTISSLQPEDFATYYCQQAYGPLTFGQGTKLEIK
With B6 the Kd [11] was 8.8 nM and the EC50 [12] was 0.0257 µg/mL.

B7: YU772-D10 (antibody, V domains shown)
VH: EVQLLESGGGLVQPGGSLRLSCAASGFTFSSYPMSWVRQAPGKGLEWVSAISGYGGSTYYADSVKGRFTISRDNSKNTLYLQMNSLRAEDTAVYYCARVVGYVYDGSYGGGMDYWGQGTLVTVSS
VL: DIQMTQSPSSLSASVGDRVTITCRASQSISSYLNWYQQKPGKAPKLLIYAASSLQSGVPSRFSGSGSGTDFTLTISSLQPEDFATYYCQQGYGPLTFGQGTKLEIK
B7 gave a Kd [11] of 7.8 nM and an EC50 [12] of 0.0225 µg/mL.

B8: YU772-H05 (antibody, V domains shown)
VH: EVQLLESGGGLVQPGGSLRLSCAASGFTFSSYAMSWVRQAPGKGLEWVSAISGSGGTTYYADSVKGRFTISRDNSKNTLYLQMNSLRAEDTAVYYCARVVGYVFGGYYGGGMDYWGQGTLVTVSS
VL: DIQMTQSPSSLSASVGDRVTITCRASQSISSYLNWYQQKPGKAPKLLIYAASSLQSGVPSRFSGSGSGTDFTLTISSLQPEDFATYYCQQGYGPLTFGQGTKLEIK
B8 gave a Kd [11] of 12 nM and an EC50 [12] of 0.03 µg/mL.

B9: YU771-E01 (antibody, V domains shown)
VH: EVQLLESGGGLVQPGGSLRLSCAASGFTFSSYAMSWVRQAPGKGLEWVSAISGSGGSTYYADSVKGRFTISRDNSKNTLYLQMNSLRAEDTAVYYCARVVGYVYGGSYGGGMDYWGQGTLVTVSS
VL: DIQMTQSPSSLSASVGDRVTITCRASESISSYLNWYQQKPGKAPKLLIYGASFLQWGVPSRFSGSGSGTDFTLTISSLQPEDFATYYCQQGYGPLTFGQGTKLEIK
With B9 the Kd [11] was 8.9 nM and the EC50 [12] was 0.0231 µg/mL.

B10: YU772-G12 (antibody, V domains shown)
VH: EVQLLESGGGLVQPGGSLRLSCAASGFPFSTYAMSWVRQAPGKGLEWVSAISGSGGYTYYADSVKGRFTISRDNSKNTLYLQMNSLRAEDTAVYYCARVVGYVYGGSYGGGMDYWGQGTLVTVSS
VL: DIQMTQSPSSLSASVGDRVTITCRASQSISSYLNWYQQKPGKAPKLLIYAASSLQSGVPSRFSGSGSGTDFTLTISSLQPEDFATYYCQQGYGPLTFGQGTKLEIK
With B10 the Kd [11] was 8.7 nM and the EC50 [12] was 0.0213 µg/mL.

B11: YU772-F11 (antibody, V domains shown)
VH: EVQLLESGGGLVQPGGSLRLSCAASGFTFSTYPMSWVRQAPGKGLEWVSAISGSGGSTYYADSVKGRFTISRDNSKNTLYLQMNSLRAEDTAVYYCARVVGYVYRGSYGGGMDYWGQGTLVTVSS
VL: DIQMTQSPSSLSASVGDRVTITCRASQSISSYLNWYQQKPGKAPKLLIYAASSLQSGVPSRFSGSGSGTDFTLTISSLQPEDFATYYCQQGYGPLTFGQGTKLEIK
B11 gave a Kd [11] of 7.6 nM and an EC50 [12] of 0.0249 µg/mL.

B12: Antibody 19 (parental) (antibody, V domains shown)
VH: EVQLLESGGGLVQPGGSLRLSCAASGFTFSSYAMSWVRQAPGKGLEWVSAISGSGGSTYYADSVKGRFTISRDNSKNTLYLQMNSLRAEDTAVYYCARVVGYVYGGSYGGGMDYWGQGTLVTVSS
VL: DIQMTQSPSSLSASVGDRVTITCRASQSISSYLNWYQQKPGKAPKLLIYAASSLQSGVPSRFSGSGSGTDFTLTISSLQPEDFATYYCQQGYGPLTFGQGTKLEIK
B12 gave a Kd [11] of 22 nM and an EC50 [12] of 0.139 µg/mL.

B13: YU771-B12 (antibody, V domains shown)
VH: EVQLLESGGGLVQPGGSLRLSCAASGFTFSSYPMSWVRQAPGKGLEWVSAISGYGGSTYYADSVKGRFTISRDNSKNTLYLQMNSLRAEDTAVYYCARVVGYVYGGSYGGGMDYWGQGTLVTVSS
VL: DIQMTQSPSSLSASVGDRVTITCRASQSISSYLNWYQQKPGKAPKLLIYAASSLQSGVPSRFSGSGSGTDFTLTISSLQPEDFATYYCQQGYGPLTFGQGTKLEIK
B13 was tested, and the Kd [11] was 16 nM and the EC50 [12] was 0.0244 µg/mL.
